From patent publication US20090087437A1 (Dana-Farber, published 2009)

What was measured:
Test in all cases: co-immunoprecipitation from cell lysates, western blot
cIAP2 = target: T1, cIAP2 (UniProt Q13489 1-604)
T1 construct: The list of antibodies in the same sentence prints 'cIAP', while the result names 'cIAP2'

Bcl-xL = target: T2, Bcl-xL (UniProt Q07817 1-233)
T2 construct: also called multidomain antiapoptotic Bcl-xL protein

Bcl-2 = target: T3, Bcl-2 (UniProt P10415 1-239)
T3 construct: also called multidomain antiapoptotic Bcl-2 protein

XIAP = XIAP (UniProt P98170 1-497)
cIAP1 = cIAP1 (UniProt Q13490 1-618)
Chain of cIAP1 (Q13490 whole entry): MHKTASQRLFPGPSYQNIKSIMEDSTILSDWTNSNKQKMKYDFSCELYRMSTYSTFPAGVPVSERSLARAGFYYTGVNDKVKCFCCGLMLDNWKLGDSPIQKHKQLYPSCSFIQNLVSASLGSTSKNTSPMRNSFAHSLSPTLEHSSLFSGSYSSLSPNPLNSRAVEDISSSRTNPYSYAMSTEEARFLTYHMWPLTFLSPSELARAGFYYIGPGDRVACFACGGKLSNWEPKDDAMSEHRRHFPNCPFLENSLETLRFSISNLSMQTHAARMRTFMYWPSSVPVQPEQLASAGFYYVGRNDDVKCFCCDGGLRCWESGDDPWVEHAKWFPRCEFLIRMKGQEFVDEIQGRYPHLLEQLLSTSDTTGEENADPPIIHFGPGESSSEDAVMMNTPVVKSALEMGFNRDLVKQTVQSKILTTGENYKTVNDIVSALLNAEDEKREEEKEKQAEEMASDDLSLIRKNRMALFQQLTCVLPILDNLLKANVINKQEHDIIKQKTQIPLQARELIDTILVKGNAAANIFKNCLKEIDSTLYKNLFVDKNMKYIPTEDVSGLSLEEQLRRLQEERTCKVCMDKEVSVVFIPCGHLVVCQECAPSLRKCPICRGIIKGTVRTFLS

T3 sequence (P10415 whole entry): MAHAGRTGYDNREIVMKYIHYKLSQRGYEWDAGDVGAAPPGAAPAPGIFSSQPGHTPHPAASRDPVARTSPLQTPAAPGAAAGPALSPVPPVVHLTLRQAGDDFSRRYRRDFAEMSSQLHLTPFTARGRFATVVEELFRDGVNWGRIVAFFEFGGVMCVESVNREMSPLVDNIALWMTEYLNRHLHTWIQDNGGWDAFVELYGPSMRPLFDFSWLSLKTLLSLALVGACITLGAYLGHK
Chain of XIAP (P98170 whole entry): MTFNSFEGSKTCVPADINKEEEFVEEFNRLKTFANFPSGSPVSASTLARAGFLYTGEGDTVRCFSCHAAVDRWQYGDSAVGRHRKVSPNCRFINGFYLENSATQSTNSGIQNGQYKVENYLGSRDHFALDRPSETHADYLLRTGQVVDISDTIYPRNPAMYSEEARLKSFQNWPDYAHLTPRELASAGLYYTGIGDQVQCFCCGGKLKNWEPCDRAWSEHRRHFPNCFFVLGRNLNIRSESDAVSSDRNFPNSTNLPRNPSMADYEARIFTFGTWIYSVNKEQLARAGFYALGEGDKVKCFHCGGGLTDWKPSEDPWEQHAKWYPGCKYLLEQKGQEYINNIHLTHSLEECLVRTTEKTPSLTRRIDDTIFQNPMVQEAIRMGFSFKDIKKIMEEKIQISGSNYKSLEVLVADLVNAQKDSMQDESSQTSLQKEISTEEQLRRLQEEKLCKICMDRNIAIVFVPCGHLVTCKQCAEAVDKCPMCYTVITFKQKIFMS
T2 sequence (Q07817 whole entry): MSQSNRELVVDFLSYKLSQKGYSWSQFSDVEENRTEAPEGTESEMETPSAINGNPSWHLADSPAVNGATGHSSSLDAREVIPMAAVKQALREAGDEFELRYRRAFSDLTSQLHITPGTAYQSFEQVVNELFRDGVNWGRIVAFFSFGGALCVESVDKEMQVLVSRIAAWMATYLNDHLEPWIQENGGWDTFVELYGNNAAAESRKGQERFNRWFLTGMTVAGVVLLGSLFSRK
T1 sequence (Q13489 whole entry): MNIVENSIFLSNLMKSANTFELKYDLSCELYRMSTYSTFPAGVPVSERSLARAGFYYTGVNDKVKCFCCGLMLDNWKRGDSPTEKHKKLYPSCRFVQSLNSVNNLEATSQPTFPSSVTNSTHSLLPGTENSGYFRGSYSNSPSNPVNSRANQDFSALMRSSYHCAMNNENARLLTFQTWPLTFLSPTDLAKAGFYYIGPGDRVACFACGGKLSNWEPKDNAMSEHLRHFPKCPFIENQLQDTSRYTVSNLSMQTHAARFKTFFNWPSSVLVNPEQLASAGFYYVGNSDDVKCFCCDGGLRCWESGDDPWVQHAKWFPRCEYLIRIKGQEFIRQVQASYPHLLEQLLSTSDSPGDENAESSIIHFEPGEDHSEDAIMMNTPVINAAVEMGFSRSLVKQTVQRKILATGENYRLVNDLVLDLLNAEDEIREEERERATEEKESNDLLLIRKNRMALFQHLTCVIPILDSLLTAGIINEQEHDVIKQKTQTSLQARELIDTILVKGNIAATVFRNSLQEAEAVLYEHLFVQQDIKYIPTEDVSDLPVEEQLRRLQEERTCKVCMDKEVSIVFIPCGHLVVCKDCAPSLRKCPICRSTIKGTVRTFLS

binding result (cIAP2): no binding | binding result (Bcl-xL): no binding | binding result (Bcl-2): no binding | binding result (XIAP): no binding | binding result (cIAP1): no binding
B1: MUC1 C-terminal transmembrane subunit (MUC1-C) (other, UniProt P15941 1098-1255, looked up)
chain: SVVVQLTLAFREGTINVHDVETQFNQYKTEAASRYNLTISDVSVSDVPFPFSAQSGAGVPGWGIALLVLVCVLVALAIVYLIALAVCQCRRKNYGQLDIFPARDTYHPMSEYPTYHTHGRYVPPSSTDRSPYEKVSAGNGGSSLSYTNPAVAATSANL
notes: Endogenous protein immunoprecipitated from MCF7 lysates with an anti-MUC1-C antibody
